In assay [1] the target is T1, Mena1-112 EVH1 domain (UniProt Q03173 1-112).
T1 construct: range 1-112
Description: fluorescence polarization competition against pGolemi^Flu. (In general: In fluorescence polarisation assays a small probe gives low polarisation when free and higher when bound to something large.)

A further assay addresses KIX domain of CBP (Homo sapiens (Human), UniProt Q92793 587-666). Put plainly: method not stated (supplemental information).
Assay [2] has as its target T1, Mena1-112 EVH1 domain. Put plainly: tryptophan fluorescence perturbation.

T1 sequence (Q03173 1-112 limits assumed): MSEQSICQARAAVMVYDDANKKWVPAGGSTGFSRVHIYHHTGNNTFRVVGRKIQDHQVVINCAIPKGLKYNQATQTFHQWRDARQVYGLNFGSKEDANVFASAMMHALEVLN
Sequence of KIX domain of CBP (Q92793 587-666 limits assumed, form in doubt): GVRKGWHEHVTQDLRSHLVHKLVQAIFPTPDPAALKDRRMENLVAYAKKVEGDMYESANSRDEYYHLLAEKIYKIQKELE

B1: ActA11 (peptide)
peptide: FEFPPPPTDEE
notes: domain: PPII repeat 2; also called 11 residue peptide comprising PPII repeat 2 of L. monocytogenes ActA
On to B1, for which, in the assay with Mena1-112 EVH1 domain [1], the IC50 – broadly, the concentration at which inhibition is half-maximal – was found to be 4 µM.
As for PFPPTPPGEEAPVEDLIRFYNDLQQYLNVV (designed binder) [pGolemi], the Kd – broadly, the free concentration of one partner at which half of the binding sites on the other are occupied at equilibrium, for simple one-to-one binding – in the assay with KIX domain of CBP was 15 µM.
In the case of PFPPTPP [PPII7], in the assay with Mena1-112 EVH1 domain [2], the Kd was determined as 480 µM.

(Values after patent US20050287643A1 (YALE UNIVERSITY, published 2005).)
